Article doi:10.1101/841569 (bioRxiv, 2019)

Molecular target: the molecule itself
Test: crystal structure

B1: Mycobacterium tuberculosis MenD (2-succinyl-5-enolpyruvyl-6-hydroxy-3-cyclohexadiene-1-carboxylate synthase, SEPHCHC synthase) (enzyme)
chain: MNPSTTQARVVVDELIRGGVRDVVLCPGSRNAPLAFALQDADRSGRIRLHVRIDERTAGYLAIGLAIGAGAPVCVAMTSGTAVANLGPAVVEANYARVPLIVLSANRPYELLGTGANQTMEQLGYFGTQVRASISLGLAEDAPERTSALNATWRSATCRVLAAATGARTANAGPVHFDIPLREPLVPDPEPLGAVTPPGRPAGKPWTYTPPVTFDQPLDIDLSVDTVVISGHGAGVHPNLAALPTVAEPTAPRSGDNPLHPLALPLLRPQQVIMLGRPTLHRPVSVLLADAEVPVFALTTGPRWPDVSGNSQATGTRAVTTGAPRPAWLDRCAAMNRHAIAAVREQLAAHPLTTGLHVAAAVSHALRPGDQLVLGASNPVRDVALAGLDTRGIRVRSNRGVAGIDGTVSTAIGAALAYEGAHERTGSPDSPPRTIALIGDLTFVHDSSGLLIGPTEPIPRSLTIVVSNDNGGGIFELLEQGDPRFSDVSSRIFGTPHDVDVGALCRAYHVESRQIEVDELGPTLDQPGAGMRVLEVKADRSSLRQLHAAIKAAL
- stoichiometry N: 4
